Reference: patent US20210139548A1 (published 2021)
*1 amine or outer side, *2 acyl side, *3 side chain or, on linkers, in order; H or OH if unused. Side-chain parts run from the residue outwards. The star is where a group is joined. C18 diacid = O=C(O)CCCCCCCCCCCCCCCCC(=O)*; γGlu = O=C(O)[C@H](CCC(=O)[*:2])N[*:1]; Isovaleryl = CC(C)CC(=O)*; AEEA = NCCOCCOCC(=O)O

T1: human neuropeptide Y2 receptor (human, UniProt P49146 1-381)
T1 construct: whole, on cells; also called hNPY2 receptor; hNPY2-R
T1 sequence (looked up): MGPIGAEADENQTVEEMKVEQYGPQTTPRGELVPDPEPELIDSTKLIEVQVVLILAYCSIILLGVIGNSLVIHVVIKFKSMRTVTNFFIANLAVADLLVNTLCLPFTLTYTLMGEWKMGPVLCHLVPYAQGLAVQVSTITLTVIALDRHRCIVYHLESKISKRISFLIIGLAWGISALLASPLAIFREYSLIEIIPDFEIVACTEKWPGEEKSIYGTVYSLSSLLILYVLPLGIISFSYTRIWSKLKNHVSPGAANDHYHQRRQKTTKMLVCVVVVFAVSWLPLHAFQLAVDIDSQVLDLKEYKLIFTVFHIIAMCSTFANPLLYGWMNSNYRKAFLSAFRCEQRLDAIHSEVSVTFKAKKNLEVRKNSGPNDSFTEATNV

B1: Compound 21 (peptide)
peptide: Isovaleryl-APEK([AEEA-AEEA-γGlu-C18 diacid])PEEDASPEELQKYYVSLRHYYNWLTRQRY-NH2
SMILES: CC(C)CC(=O)N[C@@H](C)C(=O)N1CCC[C@H]1C(=O)N[C@@H](CCC(=O)O)C(=O)N[C@@H](CCCCNC(=O)COCCOCCNC(=O)COCCOCCNC(=O)CC[C@H](NC(=O)CCCCCCCCCCCCCCCCC(=O)O)C(=O)O)C(=O)N1CCC[C@H]1C(=O)N[C@@H](CCC(=O)O)C(=O)N[C@@H](CCC(=O)O)C(=O)N[C@@H](CC(=O)O)C(=O)N[C@@H](C)C(=O)N[C@@H](CO)C(=O)N1CCC[C@H]1C(=O)N[C@@H](CCC(=O)O)C(=O)N[C@@H](CCC(=O)O)C(=O)N[C@@H](CC(C)C)C(=O)N[C@@H](CCC(N)=O)C(=O)N[C@@H](CCCCN)C(=O)N[C@@H](Cc1ccc(O)cc1)C(=O)N[C@@H](Cc1ccc(O)cc1)C(=O)N[C@H](C(=O)N[C@@H](CO)C(=O)N[C@@H](CC(C)C)C(=O)N[C@@H](CCCNC(=N)N)C(=O)N[C@@H](Cc1c[nH]cn1)C(=O)N[C@@H](Cc1ccc(O)cc1)C(=O)N[C@@H](Cc1ccc(O)cc1)C(=O)N[C@@H](CC(N)=O)C(=O)N[C@@H](Cc1c[nH]c2ccccc12)C(=O)N[C@@H](CC(C)C)C(=O)N[C@H](C(=O)N[C@@H](CCCNC(=N)N)C(=O)N[C@@H](CCC(N)=O)C(=O)N[C@@H](CCCNC(=N)N)C(=O)N[C@@H](Cc1ccc(O)cc1)C(N)=O)[C@@H](C)O)C(C)C
B2: Compound 24 (peptide)
peptide: Isovaleryl-APEK([AEEA-AEEA-γGlu-C18 diacid])PEEDASPEELQRYYVSLRKYYNWLTRQRY-NH2
SMILES: CC(C)CC(=O)N[C@@H](C)C(=O)N1CCC[C@H]1C(=O)N[C@@H](CCC(=O)O)C(=O)N[C@@H](CCCCNC(=O)COCCOCCNC(=O)COCCOCCNC(=O)CC[C@H](NC(=O)CCCCCCCCCCCCCCCCC(=O)O)C(=O)O)C(=O)N1CCC[C@H]1C(=O)N[C@@H](CCC(=O)O)C(=O)N[C@@H](CCC(=O)O)C(=O)N[C@@H](CC(=O)O)C(=O)N[C@@H](C)C(=O)N[C@@H](CO)C(=O)N1CCC[C@H]1C(=O)N[C@@H](CCC(=O)O)C(=O)N[C@@H](CCC(=O)O)C(=O)N[C@@H](CC(C)C)C(=O)N[C@@H](CCC(N)=O)C(=O)N[C@@H](CCCNC(=N)N)C(=O)N[C@@H](Cc1ccc(O)cc1)C(=O)N[C@@H](Cc1ccc(O)cc1)C(=O)N[C@H](C(=O)N[C@@H](CO)C(=O)N[C@@H](CC(C)C)C(=O)N[C@@H](CCCNC(=N)N)C(=O)N[C@@H](CCCCN)C(=O)N[C@@H](Cc1ccc(O)cc1)C(=O)N[C@@H](Cc1ccc(O)cc1)C(=O)N[C@@H](CC(N)=O)C(=O)N[C@@H](Cc1c[nH]c2ccccc12)C(=O)N[C@@H](CC(C)C)C(=O)N[C@H](C(=O)N[C@@H](CCCNC(=N)N)C(=O)N[C@@H](CCC(N)=O)C(=O)N[C@@H](CCCNC(=N)N)C(=O)N[C@@H](Cc1ccc(O)cc1)C(N)=O)[C@@H](C)O)C(C)C
B3: Compound 25 (peptide)
peptide: Isovaleryl-APEK([AEEA-AEEA-γGlu-C18 diacid])PEEEASAEELQRYYVSLRHYYNWLTRQRY-NH2
SMILES: CC(C)CC(=O)N[C@@H](C)C(=O)N1CCC[C@H]1C(=O)N[C@@H](CCC(=O)O)C(=O)N[C@@H](CCCCNC(=O)COCCOCCNC(=O)COCCOCCNC(=O)CC[C@H](NC(=O)CCCCCCCCCCCCCCCCC(=O)O)C(=O)O)C(=O)N1CCC[C@H]1C(=O)N[C@@H](CCC(=O)O)C(=O)N[C@@H](CCC(=O)O)C(=O)N[C@@H](CCC(=O)O)C(=O)N[C@@H](C)C(=O)N[C@@H](CO)C(=O)N[C@@H](C)C(=O)N[C@@H](CCC(=O)O)C(=O)N[C@@H](CCC(=O)O)C(=O)N[C@@H](CC(C)C)C(=O)N[C@@H](CCC(N)=O)C(=O)N[C@@H](CCCNC(=N)N)C(=O)N[C@@H](Cc1ccc(O)cc1)C(=O)N[C@@H](Cc1ccc(O)cc1)C(=O)N[C@H](C(=O)N[C@@H](CO)C(=O)N[C@@H](CC(C)C)C(=O)N[C@@H](CCCNC(=N)N)C(=O)N[C@@H](Cc1c[nH]cn1)C(=O)N[C@@H](Cc1ccc(O)cc1)C(=O)N[C@@H](Cc1ccc(O)cc1)C(=O)N[C@@H](CC(N)=O)C(=O)N[C@@H](Cc1c[nH]c2ccccc12)C(=O)N[C@@H](CC(C)C)C(=O)N[C@H](C(=O)N[C@@H](CCCNC(=N)N)C(=O)N[C@@H](CCC(N)=O)C(=O)N[C@@H](CCCNC(=N)N)C(=O)N[C@@H](Cc1ccc(O)cc1)C(N)=O)[C@@H](C)O)C(C)C
B4: Compound 26 (peptide)
peptide: Isovaleryl-APEK([AEEA-AEEA-γGlu-C18 diacid])PPEDATPEELQRYYVSLRHYYNWLTRQRY-NH2
SMILES: CC(C)CC(=O)N[C@@H](C)C(=O)N1CCC[C@H]1C(=O)N[C@@H](CCC(=O)O)C(=O)N[C@@H](CCCCNC(=O)COCCOCCNC(=O)COCCOCCNC(=O)CC[C@H](NC(=O)CCCCCCCCCCCCCCCCC(=O)O)C(=O)O)C(=O)N1CCC[C@H]1C(=O)N1CCC[C@H]1C(=O)N[C@@H](CCC(=O)O)C(=O)N[C@@H](CC(=O)O)C(=O)N[C@@H](C)C(=O)N[C@H](C(=O)N1CCC[C@H]1C(=O)N[C@@H](CCC(=O)O)C(=O)N[C@@H](CCC(=O)O)C(=O)N[C@@H](CC(C)C)C(=O)N[C@@H](CCC(N)=O)C(=O)N[C@@H](CCCNC(=N)N)C(=O)N[C@@H](Cc1ccc(O)cc1)C(=O)N[C@@H](Cc1ccc(O)cc1)C(=O)N[C@H](C(=O)N[C@@H](CO)C(=O)N[C@@H](CC(C)C)C(=O)N[C@@H](CCCNC(=N)N)C(=O)N[C@@H](Cc1c[nH]cn1)C(=O)N[C@@H](Cc1ccc(O)cc1)C(=O)N[C@@H](Cc1ccc(O)cc1)C(=O)N[C@@H](CC(N)=O)C(=O)N[C@@H](Cc1c[nH]c2ccccc12)C(=O)N[C@@H](CC(C)C)C(=O)N[C@H](C(=O)N[C@@H](CCCNC(=N)N)C(=O)N[C@@H](CCC(N)=O)C(=O)N[C@@H](CCCNC(=N)N)C(=O)N[C@@H](Cc1ccc(O)cc1)C(N)=O)[C@@H](C)O)C(C)C)[C@@H](C)O
B5: Compound 27 (peptide)
peptide: Isovaleryl-APEK([AEEA-AEEA-γGlu-C18 diacid])PPEDAEPEELQRYYVSLRHYYNWLTRQRY-NH2
SMILES: CC(C)CC(=O)N[C@@H](C)C(=O)N1CCC[C@H]1C(=O)N[C@@H](CCC(=O)O)C(=O)N[C@@H](CCCCNC(=O)COCCOCCNC(=O)COCCOCCNC(=O)CC[C@H](NC(=O)CCCCCCCCCCCCCCCCC(=O)O)C(=O)O)C(=O)N1CCC[C@H]1C(=O)N1CCC[C@H]1C(=O)N[C@@H](CCC(=O)O)C(=O)N[C@@H](CC(=O)O)C(=O)N[C@@H](C)C(=O)N[C@@H](CCC(=O)O)C(=O)N1CCC[C@H]1C(=O)N[C@@H](CCC(=O)O)C(=O)N[C@@H](CCC(=O)O)C(=O)N[C@@H](CC(C)C)C(=O)N[C@@H](CCC(N)=O)C(=O)N[C@@H](CCCNC(=N)N)C(=O)N[C@@H](Cc1ccc(O)cc1)C(=O)N[C@@H](Cc1ccc(O)cc1)C(=O)N[C@H](C(=O)N[C@@H](CO)C(=O)N[C@@H](CC(C)C)C(=O)N[C@@H](CCCNC(=N)N)C(=O)N[C@@H](Cc1c[nH]cn1)C(=O)N[C@@H](Cc1ccc(O)cc1)C(=O)N[C@@H](Cc1ccc(O)cc1)C(=O)N[C@@H](CC(N)=O)C(=O)N[C@@H](Cc1c[nH]c2ccccc12)C(=O)N[C@@H](CC(C)C)C(=O)N[C@H](C(=O)N[C@@H](CCCNC(=N)N)C(=O)N[C@@H](CCC(N)=O)C(=O)N[C@@H](CCCNC(=N)N)C(=O)N[C@@H](Cc1ccc(O)cc1)C(N)=O)[C@@H](C)O)C(C)C

Target: T1, human neuropeptide Y2 receptor
Assay: radioligand competition (125I-PYY(1-36)), hNPY2R membranes
In short: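 Commercial human Y2 receptor membranes (0.5 μg protein/well) were incubated with peptide for 2 h at room temperature in 50 mM HEPES, 5 mM MgCl₂, 1 mM CaCl₂, pH 7.4, with 0.2% ovalbumin. Bound radioligand was separated on PEI-soaked GF/C filters and counted by scintillation, and IC₅₀ came from nonlinear sigmoidal regression.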

Binder	Ki
B1	1.52 nM
B2	2.22 nM
B3	4.36 nM
B4	0.77 nM
B5	0.96 nM
